Measurements reported in publication PMC9104846.

Experiments:
[1] = biological target: Cetuximab (anti-EGFR), full-length IgG; assay: cross-linking
[2] = biological target: Trastuzumab (anti-Her2/neu), full-length IgG; assay: cross-linking

| Substance | percent of IgG labeled with a single SpyCatcher/SpyTag [1] | percent of IgG labeled with a single SpyCatcher/SpyTag [2] | maximum percentage of IgG conjugated to a single pAbBD-SC/ST [2] | maximum percentage of IgG conjugated to a single pAbBD-SC/ST [1] |
| --- | --- | --- | --- | --- |
| pAbBD-(GGS)7-SC-(GGS)4-pAbBD (designed binder) | > 70% | > 70% |  |  |
| pAbBD-(GGS)7-SC-(GGS)7-pAbBD (designed binder) | > 70% | > 70% |  |  |
| pAbBD-(GGS)7-ST-(GGS)4-pAbBD (designed binder) | > 70% | > 70% |  |  |
| pAbBD-(GGS)7-ST-(GGS)7-pAbBD (designed binder) | > 70% | > 70% |  |  |
| photoreactive antibody-binding domain fused to SpyCatcher (designed binder) |  |  | 40% |  |
| photoreactive antibody-binding domain fused to SpyTag (designed binder) |  |  |  | 40% |
